According to patent US8460669B2, “Compositions and methods for identifying response targets and treating flavivirus infection responses” (Academia Sinica, priority 2005, dated 2013):
Entries after “also recorded” stand apart in the source; their conditions may differ.

Legend:
[1] = Enzyme linked immunoassay of receptor.Fc fusions on immobilized GLPS-F3; format: binding, Ganoderma lucidum; settings: GLPS-F3 100 ng/well; receptor.Fc 1 μg/ml
Description: The interactions of polysaccharides with receptor.Fc fusion proteins was further investigated by performing an enzyme-linked immunoassay, which was based on immobilizing GLPS-F3 through both hydrophilic and hydrophobic forces onto microtiter plates (polysytrene). In this format, the number of different receptor.Fc fusions for profiling was increased in comparison to Example 7. To optimize the quantity of GLPS-F3 for immobilization, various amounts (3-1000 ng/well, diluted in 100 mM Tris buffer, pH9.5) of biotinylated-GLPS-F3 (Biotin-GLPS-F3) were coated onto MaxiSorp StarWell microtiter plates (50 μL/well; Nunc). The plates were incubated overnight at 4° C., and then the wells were washed twice with TBST, followed by blocking with 200 μL blocking buffer (2% BSA/TBST) for 1 hour at room temperature. Peroxidase-conjugated avidin (1:5000 dilution, Vector Laboratories) and TMB (tetramethylbenzidine) substrate was then used for detection of immobilized biotinylated GLPS-F3.
The interaction between GLPS-F3 and receptor.Fc was then tested. […] Wells were incubated with 100 μL TMB substrate for 15 min after TBST washing and read at 450 nm in a Fusion plate reader (Perkin Elmer). […]

[2] = test system: Dengue virus; experiment: ELISA of receptor.Fc interaction with Dengue virus; format: binding; settings: for binding to DV pretreated with heat or dithiothreitol: 95° C. 5 min or DTT 0.1 M; for binding to DV pretreated with PNGaseF: PNGaseF 500 U; for interaction of receptor.Fc with Dengue virus (ELISA): receptor.Fc 1 μg, DV 5×10^6
Description: One μg of each receptor.Fc fusion protein was coated onto microtiter plates overnight at 4° C. DV (5×10^6 particles) of strain 16681 (a DEN2 strain) in binding buffer (1% BSA, 2 mM CaCl2, 2 mM MgCl2, 50 mM Tris-HCl pH 7.5, 150 mM NaCl) was then added to the plates and the plates were incubated for 2 hours. After washing non-bound virus, a biotinylated anti-DEN2 envelope protein antibody (Wu et al., J Virol, 2002. 76(8): p. 3596-604) was applied to bind to the virus for 1 hour. Diluted horseradish peroxidase-conjugated streptavidin was then added to the plates, followed by a 1 hour incubation. TMB substrate was then added and the plates were read using an ELISA reader at OD450 nm.
The microtiter plate assay was repeated in the presence of EDTA (10 mM) to chelate Ca^++ cations.
The microtiter plate assay was also repeated for DVLR1/CLEC5A.Fc fusion protein with DV particles (5×10^6) that had been 1) preincubated with 500 U of the glycosidase PNGaseF (New England Biolabs, Inc.) overnight at 37° C.; or 2) treated with dithiothreitol (DTTI) (0.1M); or 3) incubated at 95° C. for 5 minutes; or 4) UV irradiated for 5 minutes. The results are shown in FIG. 8D (asterisks indicate where the binding affinity of DVLR1/CLEC5A.Fc fusion protein is altered by modification of the virus relative to non-treated virus; ** p<0.01, *** p<0.001, Student's t test). […]

[3] = test system: Dengue virus; experiment: Immunoprecipitation of Dengue virus with receptor.Fc; format: binding; settings: receptor.Fc 5 μg; DV 5×10^6; listed as DVLR1/CLEC5A.Fc
Description: The results are depicted in FIG. 8A (** indicates p<0.01, *** indicates p<0.001 (Student's t test)). […] Specifically, 5×10^6 Dengue virus particles were incubated with 5 μg of each protein, and then Protein A beads were added. The resulting immunocomplexes were washed, separated by SDS-PAGE, and transferred onto nitrocellulose membrane. The membrane was then probed with biotinylated anti-DEN2 envelope protein antibody and developed with horseradish peroxidase-conjugated streptavidin.
In FIG. 16b, complexes of DV (5×10^6 PFU) with receptor.Fc (5 μg) were immunoprecipitated and detected on westerns with mAb to DV envelope (E) protein. […] FIGS. 16d and 16e show sugar competition assays wherein both DC-SIGN (CLEC4L) and DVLR1/CLEC5A increase DV binding to human 293T cells (FIG. 16d), while addition of sugars inhibits biotinylated DV binding to DC-SIGN- (left panel) or DLVR1/CLEC5A- (right panel) transfected 293T cells in a dose-dependent manner as determined by flow cytometry (FIG. 16e). According to FIG. 16e, MFI represents mean fluorescence intensity. Units (U) for monosaccharide (mannose and fucose) and polysaccharide (mannan) are mM and mg/ml, respectively. […] Data are expressed as the mean±s.d. of three independent experiments. Two-tailed, Student's t-tests were performed. […]

[4] = test system: JEV; experiment: ELISA of DVLR1/CLEC5A.Fc interaction with JEV; format: binding, Japanese encephamyelitis virus; settings: 1 μg; JEV 5×10^6 PFU
Description: Like with DV, JEV follows a similar virus infection response pattern, which is believed to be the same or similar in all flaviviruses. […] (1 μg), with JEV and DV (5×10^6 PFU), respectively, were determined by ELISA. DV interacts with human DVLR1/CLEC5A (187 amino acid in length) SEQ ID NO: 72, but not the alternatively spliced form sDVLR1/CLEC5A (aa 43-65 is deleted). SEQ ID NO: 73. […] DAP12 in DV-infected macrophages were precipitated by anti-DAP12 mAb, blotted to nitrocellulose paper after fractionation on SDS-PAGE, followed by incubation with antibodies against phosphotyrosine and DAP12, respectively. JEV-induced DAP12 phosphorylation (m.o.i.=5) is inhibited by pLL3.7/DVLR1/CLEC5A. […] JEV-induced TNF-α secretion is inhibited by […] mAb (right). Data are expressed as the mean±s.d. of three independent experiments.

B1: Fc.MDL-1: extracellular domain of human DVLR1/CLEC5A (MDL-1) fused to the Fc portion of human IgG1 (protein)
chain: MNWHMIISGLIVVVLKVVGMTLFLLYFPQIFNKSNDGFTTTRSYGTVSQIFGSSSPSPNGFITTRSYGTVCPKDWEFYQARCFFLSTSESSWNESRDFCKGKGSTLAIVNTPEKLFLQDITDAEKYFIGLIYHREEKRWRWINNSVFNGNVTNQNQNFNCATIGLTKTFDAASCDISYRRICEKNAK
binding ability to GLPS-F3 [1]: minimal binding ability
binding to DV pretreated with heat or dithiothreitol [2]: abolish
binding to DV pretreated with heat or dithiothreitol ([2]; listed as DVLR1/CLEC5A.Fc): almost completely inhibited
Ca^++ dependence of binding to Dengue virus ([2]; EDTA 10 mM): Ca^++ independent; also recorded: no effect
binding to DV pretreated with PNGaseF [2]: substantially reduced
binding to DV pretreated with PNGaseF ([2]; listed as DVLR1/CLEC5A.Fc): inhibited DVLR1/CLEC5A.Fc interaction significantly
interaction of receptor.Fc with Dengue virus (ELISA) [2]: binds; also recorded: interacts
interaction of receptor.Fc with Dengue virus (ELISA) ([2]; listed as DVLR1/CLEC5A.Fc): able to capture DV2
immunoprecipitation of Dengue virus (E protein detected) [3]: able to immunoprecipitate DV; also recorded: detected
interaction with JEV (ELISA) [4]: not
